# Laboratory results taken from the nanobody polyreactivity screen of Harvey et al. (2022).
# Test: yeast display, Sf9 membrane polyspecificity reagent, FACS + sequencing; frameworks hold sequencing errors
# Method in brief: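 After 36–48 hours of galactose induction, yeast (Saccharomyces cerevisiae BJ5465) displaying a synthetic nanobody library were stained at 4 °C for 1 hour with 10% biotinylated, detergent-solubilized Sf9 membrane reagent. Streptavidin microbeads enriched the stained cells before FACS sorting into low and high (top ~1%) gates on anti-HA and streptavidin fluorescence. Each clone's polyreactivity label reflects its gate of origin.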
row,Sequence,polyreactivity (PSR sort gate)
1,QVQLVESGGGLVQAGCSLRLSCAASGGTFGRYAMGWYRQAPGTERELVASITTGGRTNYADSVKGRFTISRDNAKNTVYLQMNSLKPEDTAVYYCAKKRYGYPVPFYYWGQGTQVTVSS,high polyreactivity
2,QVQLVESGGGLVQAGCSLRLSCAASGGTFYVNAMGCYRQAPGKDRELVAGIRESGASTYYADSVKGRFTISLDNAKNTVYLQMNSLKPEDTAVYYCAVDGPYPAASQSEVGYDYWGQGTQVTVSS,low polyreactivity
3,QVQLVESGGGLVQAGCSLRLSCAASGRIFSRYTMGWSRQAPGKERELVAAISSGGSTYYADSVKGRFTISLDNAKNTVYFQMNSLKPEDTAVYYCNTRYVGQRSTWVDQVRRYDYCGQGTQVTVSS,high polyreactivity
4,QVQLVESGGGLVQAGCSLRLSCAASGRIFYYNTMGWYRQAPGKERELVAAINFSGDRTYYADSVKGRFTISRDNAKNTVYLQMNSLKPEDTAVYYCAAQGYWYGYQPGNFWGQGTQVTVSS,high polyreactivity
5,QVQLVESGGGLVQAGCSLRLSCAASGRSIAYNAMGWYRQAPGTERELVAAISWSGGSTYYADSVKGRFTISRDNAKNTVYLQMNSLIPEDTAVYYCAKRFAQYRYPYDYWGQGKQVTVSS,high polyreactivity
6,QVQLVESGGGLVQAGCSLRLSCAASGRTFGGYALGWYRQAPGKERELVAAISRGGNTYYADSVKGRFTISRDNAKNTVYLQMNSLKPEDTAVYYCNVARGNPVPPSEYWGQGTQVTVSS,low polyreactivity
7,QVQLVESGGGLVQAGCSLRLSCAASGRTGFNAMGWYRQAPGKERELVASIRSGGTSTYYADSVKGRFTISRDNAKNTVYLQMNSLKPEDTAVYYCYDYWGHGTQVTVSS,low polyreactivity
8,QVQLVESGGGLVQAGCSLRLSCAASGSIFRAYAMGWYRHAPGKERELVAGISGSGGSTYYADSVKGRFTISRDNAKNTVYLQMNSLKPQDTAVYYCAKALSTYQRTGCYDYWGQGTQVTVSS,high polyreactivity
9,QVQLVESGGGLVQAGCSLRLSCAASGSTFDNYAMGWYRQAPGKERELVAAISSSGTRTYYADSVKGRFTISRDNAKNTVYLQMNSLKPEDTAVYYCAAGGHYYSSPGYNYWGLGTQVTVSS,high polyreactivity
10,QVQLVESGGGLVQAGCSLRLSCAASGSTFFSNAMGWYRQAPGKFRELVAGITFSGGSTYYADSVKGRFTISRDYAKNTVFLQMNSLKPEDTAVYYCAASPPYKLVWWRRMDYWGQGTQVTVSS,low polyreactivity
11,QVQLVESGGGLVQAGCSLRLSCAASGSTFRYYPMGWYRQAPGKEREFVAAITWRDGSTYYADSVKGRFTISRDNAKNTVYLQMNSLKPEDTAVYYCAARNSHVGYYDEYYYWGQGTQVTVSS,low polyreactivity
12,QVQLVESGGGLVQAGCSLRLSCAASGSTLDGNAMGWYRQPPGKERELVAAISVSGGTTYYADSVKGRFTISRDNAKNNVYLQMNSLKREDTAVYYCSTEWRPRYYGTEPFDSWGQGTQVTVSS,high polyreactivity
13,QVQLVESGGGLVQAGCSLRLSCAASGYIFYIYAMGWYRQAPGKERELVAAITWSGDTTYYADSVKGRFTISRDNAKNTVYLQMNSLKPEDTAVYNCATYYYYPSWYLLYGEYNYWGQGTQVTVSS,low polyreactivity
14,QVQLVESGGGLVQAGCSLRLSCAATGRSFRRNTMGWYRQAPGKERELVAAISSSGSSTYYADSVKGRFTISRDNAKNTVFLQMNSLKPEDTAVYYCAARGRGQPFVRYDYWGQGTQVTVSS,high polyreactivity
15,QVQLVESGGGLVQAGCSLRLSCADSGLTFTFYAMGWYRQAPGKVRELVAAISTSGASTYYADSVKGRFTISRDNANNTVYLQMNSLKPEDTAVYYCAAEYSYSSYLWYDYWGQGTQVTVSS,high polyreactivity
16,QVQLVESGGGLVQAGCSLRLSCDASGFIFKVYAMGWYRQAPGKERELVASISFSGGRTYYADSVKGRFTISRDNAKNTFYLQMNSLKPEDSAVYYCNRSYVNKYYSWGQGTQVTVSS,high polyreactivity
17,QVQLVESGGGLVQAGCSLRLSCDASGSIFPGNAMGWYRQAPGKEREFVAAISWSGGSTNYADSVKGRFTISRDNAKNTVYLQMNSLKPEDTAVYFCAKRFVRRDPTTQLYGKAYEYWGQGTQVTVSS,high polyreactivity
18,QVQLVESGGGLVQAGCSLRLSCGASGSIFAYYDMGWYREAPGTEREVVAAITTRDDDTYYADSVKGRFTISRDTAKNPVYLQMNSLKPEDTAVYYCAAAWWDYGNGKYDYWGQGTQVTVSS,low polyreactivity
19,QVQLVESGGGLVQAGCSLRLSCSASGRIYYAMGWYRQADGKERELVATITRSGGRTYYADSVKGRFTISRDNAKITVYLQINSLKPEDTAVYYCAKQFGRPYVGSNSYCLTYDSWGEGTQVTVSS,low polyreactivity
20,QVQLVESGGGLVQAGCSLRLSSAASGTIFGYYTMGRYRQAPGKEREIVAAISRSGGSTYYADSVKGRFTISRDNAHNTGYLQMNSLKPEHTAVYYCNADVYWEYDYWGQGTQVTVSS,low polyreactivity
21,QVQLVESGGGLVQAGCSLRLSWAASGFTFAYYAMGWSRQAPGKERDLVASITSSGGSTYYADSVKGRFTISRDNAKNTVYLQMNSLKPEDTAVYYCNKAYRGVYYGYEYWGQGTQVTVSS,high polyreactivity
22,QVQLVESGGGLVQAGCSLRLTCAASGFTFYKYAMGWYRQAPGKERELVAAISRRGTSTYYADAVKGRFTISRDNAKNTVYLQMNSLKPEDTAVYYCNRDVSLSAFDYWGQGTQVTVSS,high polyreactivity
